Reference: patent US20230233645A1, “EFFECTIVE TREATMENTS FOR VASCULAR ASSOCIATED MACULOPATHY, SEVERE MACULOPATHY, LATE-STAGE MACULOPATHY, AND ABERRANT CHORIOCAPILLARIS” (UNIVERSITY OF UTAH RESEARCH FOUNDATION, priority 2011, published 2023)

What was measured:
DQ elastin = assay: In vitro elastin degradation assay using DQ elastin; type: biochemical; details: DQ elastin substrate
Method: Therefore, studies were performed to determine whether HTRA1 degrades elastin, a major component of Bruch's membrane. Recombinant HTRA1 was incubated with dye-labeled elastin at 37° C. for two hrs and the fluorescence of the released elastin peptides was monitored at 513 nm. […] In an additional positive control assay, HTRA1 elastase activity was measured by fluorescence using various concentrations of elastase enzyme starting with 0.04 ng/well of porcine pancreatic elastase and 100 ng/well of ProteaImmun HtrA1. DQ Elastin substrate was 25 ug/ml.
Recombinant HtrA1 protein expressed and purified from Sf9 cells was purchased from ProteaImmun (Cat. #30600103). The HtrA1 elastase activity was measured using a fluorescent EnzChekElastase Assay Kit from Invitrogen (Cat. #E12056) using the protocol provided, except substrate concentration was 12.5 µg/mL. HtrA1 concentration was titrated from 200-12.5 ng/well in two-fold dilutions. Activity was measured in 30-minute increments for a total of 2 hours.
The explanation for the elastin degradation in both the Bruch's membrane and the choroid vessels in the HTRA1 mice is that the protease activity of overexpressed HTRA1, which is secreted from RPE, caused the degeneration. Since HTRA1 was not known to have elastase activity, an in vitro elastin degradation assay was performed using DQ elastin, a soluble elastin labeled with quenched BODIPY FL dye, as a substrate. Purified recombinant human HTRA1 degraded elastin with a specific activity of 4.4±0.8 u/mg (n=3). […] To eliminate the possibility that the depletion of the elastic layers of the choroidal vessels and Bruch's membrane was the result of downregulation of elastin expression, we analyzed the protein level of soluble elastin in the RPE/choroid of hHTRA1^+ and WT mice by western blot. […] This is similar to what has been observed in human donors with AMD and with aberrant choriocapillaris lobules.

HTRA1 = HTRA1 (Homo sapiens, UniProt Q92743); details: binds covalently to the active-site serine of HTRA1; cited from earlier work
Chain of HTRA1 (Q92743 23-480): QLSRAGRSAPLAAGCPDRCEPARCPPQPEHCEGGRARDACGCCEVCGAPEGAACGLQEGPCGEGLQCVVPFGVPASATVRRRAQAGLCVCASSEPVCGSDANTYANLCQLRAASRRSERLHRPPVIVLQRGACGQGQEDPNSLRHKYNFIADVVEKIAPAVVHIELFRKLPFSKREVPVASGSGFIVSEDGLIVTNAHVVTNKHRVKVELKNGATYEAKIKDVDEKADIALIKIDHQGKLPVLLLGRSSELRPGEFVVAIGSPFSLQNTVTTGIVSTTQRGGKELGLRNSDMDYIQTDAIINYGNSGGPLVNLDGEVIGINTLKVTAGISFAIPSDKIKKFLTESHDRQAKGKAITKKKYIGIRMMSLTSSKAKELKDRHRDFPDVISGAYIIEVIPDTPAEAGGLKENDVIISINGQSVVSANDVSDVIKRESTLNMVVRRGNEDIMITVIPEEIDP

Row | Substance | specific activity of elastin degradation (DQ elastin) [u/mg] | elastase activity, times less than that of porcine pancreas elastase (DQ elastin) [times] | IC50 (HTRA1) [µM]
1 | porcine pancreas elastase: reference elastase enzyme | 135±5.5 |  | 
2 | recombinant human HTRA1: purified recombinant human HTRA1 serine protease | 4.4±0.8 | ~30 | 
3 | DPMFKLboroV |  |  | 2.6
